IC50, pseudovirus neutralization and IC80, pseudovirus neutralization data for one molecule are collected here from patent publication US20240109955A1.

Test in all cases: cell-based or functional assay
In test [1] the target is SARS-CoV-2 Omicron BA.2.75.2 spike protein (SARS-CoV-2).
The target of test [2] is SARS-CoV-2 Omicron BQ.1 spike protein (SARS-CoV-2).
Test [3] concerns the target SARS-CoV-2 Omicron BA.4.6 spike protein (SARS-CoV-2).
The target of test [4] is SARS-CoV-2 Omicron BF.7 spike protein (SARS-CoV-2).
The target in test [5] is SARS-CoV-2 Omicron BQ.1.1 spike protein (SARS-CoV-2).
The target of test [6] is SARS-CoV-2 Omicron XBB spike protein (SARS-CoV-2).
For test [7], the target named is SARS-CoV-2 Omicron BA.4/5 spike protein (SARS-CoV-2).

B1: MX1041 (bispecific antibody)
chain: QTVVTQEPSFSVSPGGTVTLTCGLSSGSVSTAYFPSWYQQTPGQAPRTLIYGTNTRSSGVPDRFSGSILGNKAALTITGAQADDESDYYCVLYMGRGIVVFGGGTKLTVLGGSSGEIVLTQSPGTLSLSPGETATLSCRASQSFSSDLAWYQQKPGQAPRLLIYGASSRATGIPDRFSGSGSGTDFTLTISRLEPADFAVYYCQQYGSSPPVTFGGGTKVEIKGGGGSGGSGSGGGGSASGSGEVQLVESGGGLIQPGGSLRLSCAASGVIVSYNYMNWVRQAPGKGLEWVSVIYSGGSTFYADSVRGRFTISRDNSKNTLYLQMNSLRAEDTAVYYCARDLGPAGAFDIWGLGTMVTVSSGGSSGQVQLVESGGGVVQPGRSLRLSCAASGFTLSSYGMHWVRQAPGKGLEWVAVISYDGSNKYYVDSVKGRFTISRDNSKNTLYLQMNSLRAEDTAVYYCRWAYWELLPDYYYGMDVWGQGTTVTVSSASGGSGDKTHTCPPCPAPELLGGPSVFLFPPKPKDTLMISRTPEVTCVVVDVSHEDPEVKFNWYVDGVEVHNAKTKPREEQYNSYVVSVLTVLHQDWLNGKEYKCKVSNKALPAPIEKTISKAKGQPREPQVYTLPPSRDELTKNQVSLTCLVKGFYPSDIAVEWESNGQPENNYKTTPPVLDSDGSFFKKLTVDKSRWQQGNVFSCSVLHEALHSHYTQKSLSLSPG
Regarding B1, the IC50, pseudovirus neutralization in test [1] stood at 0.0129 µg/mL; in test [2], 0.0429 µg/mL; in test [3] it was 0.0257 µg/mL; in test [4] it was 0.00835 µg/mL; in test [5], 0.0493 µg/mL; in test [6], 0.0691 µg/mL. Besides, the IC50, pseudovirus neutralization in test [7] stood at 0.012 µg/mL. Further, the IC80, pseudovirus neutralization in test [1] amounted to 0.0362 µg/mL; in test [2] it was 0.188 µg/mL; in test [3], 0.0671 µg/mL; in test [4], 0.0304 µg/mL; in test [5], 0.11 µg/mL; in test [6] it was 0.398 µg/mL. Moreover, in test [7], the IC80, pseudovirus neutralization is 0.0262 µg/mL.
